Series [1] addresses T1, 284B.
T1 construct: also called LHD284 B; LHD284 chainB
T1 chain: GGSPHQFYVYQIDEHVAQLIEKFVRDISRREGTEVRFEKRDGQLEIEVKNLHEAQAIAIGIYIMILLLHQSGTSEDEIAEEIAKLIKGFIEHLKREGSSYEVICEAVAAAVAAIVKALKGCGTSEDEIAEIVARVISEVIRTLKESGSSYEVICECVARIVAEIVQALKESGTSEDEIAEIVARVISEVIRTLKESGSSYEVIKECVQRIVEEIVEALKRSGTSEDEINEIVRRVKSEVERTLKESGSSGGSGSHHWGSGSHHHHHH
In words: BLI, global kinetic fit, 1:1 model. Here is the method: (§1) Biolayer interferometry experiments were performed on an OctetRED96 BLI system (ForteBio, Menlo Park, CA). Streptavidin coated biosensors were first equilibrated for at least 10 minutes in Octet buffer (10 mM HEPES pH 7.4, 150 mM NaCl, 3 mM EDTA, 0.05% Surfactant P20) supplemented with 1 mg/ml Bovine Serum Albumin (SigmaAldrich). Enzymatically biotinylated designs were immobilized onto the biosensors by dipping the biosensors into a solution with 10-50 nM protein for 30-120 s. This was followed by dipping in fresh octet buffer to establish a baseline for 120 s. Titration experiments were performed at 25° C. while rotating at 1,000 r.p.m. Association of designs was allowed by dipping biosensors in solutions containing designed protein diluted in octet buffer until equilibrium was approached followed by dissociation by dipping the biosensors into fresh buffer solution in order to monitor the dissociation kinetics. Steady-state and global kinetic fits were performed using the manufacturer's software (Data Analysis 9.1) assuming a 1:1 binding model.
(BLI is a label-free optical method that tracks binding on a fibre tip over time.)

The target of series [2] is T1, 284B. In words: BLI, steady state fit. Here is the method:
as §1

Series [3] concerns the molecule itself. The series is described as follows: SEC titration of the protomer alone at several injection concentrations (Superdex 75, normalised A230); self-association.
Series [4] concerns the target T2, 275B.
T2 construct: also called LHD275 B; LHD275B
T2 chain: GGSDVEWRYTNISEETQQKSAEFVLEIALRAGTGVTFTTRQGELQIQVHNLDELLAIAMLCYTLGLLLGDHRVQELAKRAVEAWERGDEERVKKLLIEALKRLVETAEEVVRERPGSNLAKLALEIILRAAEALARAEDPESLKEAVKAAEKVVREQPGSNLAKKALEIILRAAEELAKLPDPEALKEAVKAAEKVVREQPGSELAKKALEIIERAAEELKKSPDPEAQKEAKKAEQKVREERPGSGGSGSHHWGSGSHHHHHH
In words: BLI, global kinetic fit, 1:1 model. Here is the method:
as §1

For series [5], the target named is T2, 275B. In words: BLI, steady state fit. Here is the method: as §1
Series [6] deals with T2, 275B. The series is described as follows: SEC of mixed components; tetramer (control pentamer) listed in Table 6, neighbours in the chain. Here is the method:
(§2) Complexes and individual components were diluted in 20 mM Tris pH 8.0, 100 mM NaCl. After o/n equilibration of the mixtures at room temperature or 4 degrees C., 500 ul of sample was injected onto a Superdex™ 200 10/300 increase GL (dimers, linear assemblies) or Superose™ 6 increase 10/300 GL (symmetric assemblies) (all columns from GE healthcare) using the absorbance at 230 nm or 473 nm (for GFP tagged components) as read-out. Dimers were mixed at monomer concentrations of 5 μM or higher. Trimer and ABCD tetramer mixtures contained 5 μM of the bivalent connector, and 7.5 μM of each terminal cap (lower absolute concentrations with the same ratios were used for some trimers). ABCA tetramer mixtures contained 5 μM per bivalent connector and 15 μM terminal cap. The hexamer mixture contained 3 μM of components C and D, 3.6 μM of B and E, and 4.4 μM of A and F. The branched assembly shown in FIG. 4A contained 2.8 μM of the trivalent connector and 4 μM of each cap. For the exchange experiment shown in FIG. 5A, the ABC trimer was preincubated at concentrations of 6 μM B and 9 μM each of A and C. C′ was then added to reach a final concentration of 2 μM B, 3 μM each of A and C, and 6 μM C′.

Series [7] has as its target T3, 278B.
T3 construct: also called LHD278 B; LHD278 chainB
T3 chain: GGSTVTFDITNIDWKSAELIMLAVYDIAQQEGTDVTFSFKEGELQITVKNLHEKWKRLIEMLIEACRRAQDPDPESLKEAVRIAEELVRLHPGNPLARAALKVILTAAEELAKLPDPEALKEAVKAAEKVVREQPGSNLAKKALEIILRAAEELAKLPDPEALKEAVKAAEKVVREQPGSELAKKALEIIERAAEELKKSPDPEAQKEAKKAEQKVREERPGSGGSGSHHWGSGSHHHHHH
In words: BLI, global kinetic fit, 1:1 model. Here is the method: as §1

Series [8] addresses T3, 278B. In words: BLI, steady state fit. How it is done: as §1
Series [9] concerns the target T4, 298B.
T4 construct: also called LHD298 B; LHD298 chainB
T4 chain: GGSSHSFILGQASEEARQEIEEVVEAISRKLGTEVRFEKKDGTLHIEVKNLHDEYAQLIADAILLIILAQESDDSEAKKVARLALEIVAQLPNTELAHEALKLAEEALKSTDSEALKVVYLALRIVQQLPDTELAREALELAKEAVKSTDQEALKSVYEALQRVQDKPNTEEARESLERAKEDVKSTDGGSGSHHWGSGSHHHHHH
The series is described as follows: BLI, global kinetic fit, 1:1 model. How it is done: as §1

Series [10] deals with T4, 298B. In words: BLI, steady state fit. How it is done:
as §1

Another series concerns the target T5, DF202.
T5 construct: Bivalent connector
T5 chain: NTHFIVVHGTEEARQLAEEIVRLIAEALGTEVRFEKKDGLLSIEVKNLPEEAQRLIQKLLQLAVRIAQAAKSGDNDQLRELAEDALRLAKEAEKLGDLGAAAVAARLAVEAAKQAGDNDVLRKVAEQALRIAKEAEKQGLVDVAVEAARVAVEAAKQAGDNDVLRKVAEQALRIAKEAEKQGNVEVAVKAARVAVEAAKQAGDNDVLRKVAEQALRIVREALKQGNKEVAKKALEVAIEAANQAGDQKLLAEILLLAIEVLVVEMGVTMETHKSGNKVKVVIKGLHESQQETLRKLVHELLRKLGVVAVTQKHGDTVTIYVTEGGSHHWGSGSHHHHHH
The series is described as follows: SEC of mixed components; trimer listed in Table 6.

The target of a further series is T6, DFB0.
T6 construct: Bivalent connector
T6 chain: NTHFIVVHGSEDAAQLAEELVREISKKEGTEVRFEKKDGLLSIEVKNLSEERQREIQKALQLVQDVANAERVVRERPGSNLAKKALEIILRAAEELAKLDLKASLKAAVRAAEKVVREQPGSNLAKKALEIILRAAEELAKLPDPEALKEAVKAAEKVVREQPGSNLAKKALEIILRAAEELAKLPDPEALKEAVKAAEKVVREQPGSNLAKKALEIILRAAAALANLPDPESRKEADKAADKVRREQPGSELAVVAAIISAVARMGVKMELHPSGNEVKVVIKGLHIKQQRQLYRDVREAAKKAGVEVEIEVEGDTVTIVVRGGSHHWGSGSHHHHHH
In words: SEC of mixed components; linear tetramer listed in Table 6, neighbours in the chain.

The target in another series is T7, DFB-1.
T7 construct: Bivalent connector
T7 chain: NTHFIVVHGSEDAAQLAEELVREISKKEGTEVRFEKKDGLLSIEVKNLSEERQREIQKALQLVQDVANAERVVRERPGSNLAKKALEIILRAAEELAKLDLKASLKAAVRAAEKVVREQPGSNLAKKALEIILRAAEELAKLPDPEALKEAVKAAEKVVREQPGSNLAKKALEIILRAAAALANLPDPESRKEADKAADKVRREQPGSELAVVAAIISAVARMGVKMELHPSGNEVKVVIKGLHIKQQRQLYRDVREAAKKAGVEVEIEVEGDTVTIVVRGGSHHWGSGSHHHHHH
Described as above.

For a further series, the target named is T8, DF206.
T8 construct: Bivalent connector
T8 chain: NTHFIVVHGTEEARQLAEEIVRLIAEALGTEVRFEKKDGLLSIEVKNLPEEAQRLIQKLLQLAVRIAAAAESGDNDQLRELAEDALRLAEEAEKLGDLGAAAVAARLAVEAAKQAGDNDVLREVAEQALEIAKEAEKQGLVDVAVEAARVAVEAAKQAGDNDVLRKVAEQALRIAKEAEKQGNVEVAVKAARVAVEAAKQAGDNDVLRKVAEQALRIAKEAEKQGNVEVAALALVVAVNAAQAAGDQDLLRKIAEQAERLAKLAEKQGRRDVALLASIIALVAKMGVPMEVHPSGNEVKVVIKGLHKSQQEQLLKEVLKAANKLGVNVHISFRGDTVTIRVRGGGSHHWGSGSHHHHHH
The series is described as follows: SEC of mixed components; tetramer (control pentamer) listed in Table 6, neighbours in the chain. Here is the method:
as §2

Series [11] concerns the target T9, 289B.
T9 construct: also called LHD289 B; LHD289 chainB
T9 chain: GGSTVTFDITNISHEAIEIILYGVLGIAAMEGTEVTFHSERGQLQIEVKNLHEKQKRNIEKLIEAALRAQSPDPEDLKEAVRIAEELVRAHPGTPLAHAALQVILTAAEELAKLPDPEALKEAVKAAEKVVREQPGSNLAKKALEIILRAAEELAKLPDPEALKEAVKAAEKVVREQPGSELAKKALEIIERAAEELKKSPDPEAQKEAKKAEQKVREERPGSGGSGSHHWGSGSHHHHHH
In words: BLI, global kinetic fit, 1:1 model. Here is the method: as §1

For series [12], the target named is T9, 289B. In words: BLI, steady state fit. How it is done: as §1

B1: LHD284 chainA (designed binder)
chain: TDELLERLRQLFEELHERGTIIIVEVHINGERQTKYLILAPKEELKKHLERIREKIEREGSSEVEVKVTSGGTTWTFNEK
notes: also called LHD284A
In general, Kd refers to the free concentration of one partner at which half of the binding sites on the other are occupied at equilibrium, for simple one-to-one binding. A high value points to a looser complex. For orientation: koff means a measure of how fast the partners let go of each other. In general, kon refers to the second-order rate constant of association. In the series with 284B [1], B1 had a Kd of 8.9 nM, a koff of 0.0012 s⁻¹ and a kon of 130000 M⁻¹ s⁻¹. In the series with 284B [2], this molecule showed a dissociation constant (Kd) of 97 nM.

B2: LHD275 chainA (designed binder)
chain: GRQEKVLKSIEETVRKMGVEMLTFRAGNAVIVVIRGLHPEQAKQLLRDVSQTAHKQGVTVTLTFHGDVVFILVLVGASEEEQKHMQERIQELARIIHEAKRRGVSEEQLREIAEKMAKEIQEWG
notes: also called LHD275A
For B2, the binding result in series [3] is “no binding (tested: 8.0 uM)”. For the same molecule, in the series with 275B [4], the affinity, expressed as Kd, was 2.9 nM; the off-rate (koff) is 0.00041 s⁻¹; the on-rate (kon) was determined as 140000 M⁻¹ s⁻¹. Also, the Kd with 275B [5] came to 4.5 nM.

B3: DF275A-1 (designed binder)
chain: HHHHHHGSGSGRQEKVLKSIEETVRKMGVEMLTFRAGKAVIVVIRGLHPEQAKQLLRDVSQTAHKQGVTVTLTFHGDVVFILVLVGASEEQQRAMQLLIQALARIIHEAKRRGVSEEQLKRMIEAAARLIEVLLKALEAAREGNTDEVREQLQRALEIVREIGLTAAVRLALLVVEAVATLAAKRGNTDAVREALEVALEIARESGTTEAVKLALEVVARVAIEAARRGNTDAVREALEVALEIARESGTTEAVKLALEVVARVAIEAARRGNTDAVREALAVAVKIALKSGTEEAFRLAKEVIKRVSDEAKKQGNEDAVKEAESFDAAAELILSLLKLFRELHERGTEIVVEVHINGRKTEIEVQGIDKRLLQIILEVIIEEIAREGPDKVEVNVHSGGQTWTFRYGGS
notes: Bivalent connector
On to B3, for which, in the series with 275B [6], the binding result is “binds”.

B4: LHD278 chainA (designed binder)
chain: GRQEKVLKSIEETVRKMGVRMLTHRGGNAVIVVIEGLHPSQIKQLMQDVIKTAKKQGVTVTITVSGDIVVIMVVVGASDEEQEEARRLVQEIARALQEAKRKGANEEQLEQLLRELLERAEREG
notes: also called LHD278A
For the molecule B4, the binding result in series [3] is reported as “no binding (tested: 52.4 uM)”. In the series with 278B [7], this molecule registered a Kd of 0.8 nM, an off-rate (koff) of 0.00022 s⁻¹ and a kon of 290000 M⁻¹ s⁻¹. In the series with 278B [8], this molecule displayed a Kd of 3.4 nM.

B5: LHD298 chainA (designed binder)
chain: GRQEKVLKSIEETVRKMGVTMETHRSGNTVKVVIKGLHESQQEQLHKDVEETVQKEGVFVLVSHHGDTVTIQVYE
notes: also called LHD298A
In the series with 298B [9], B5 gave a Kd of 3.5 nM, a koff of 0.00022 s⁻¹ and a kon of 64000 M⁻¹ s⁻¹. The same molecule gave an equilibrium dissociation constant (Kd) in the series with 298B [10] of 16 nM.

B6: DFA0 (designed binder)
chain: TTNFHLINGSEEARQLIEKAVRAISKKEGTEVHFEKSDGTLEIRVKNLHEKREREIKKVIELILEVAAAERIVRERPGSNLAKKALEIILRAAEELAKADVDAALEAAVRAAEKVVREQPGSNLAKKALEIILRAAEELAKLPDPEALKEAVKAAEKVVREQPGSNLAKKALEIILRAAEELAKLPDPEALKEAVKAAEKVVREQPGSNLAKKALEIILRAAAALANLPDPESRKEADKAADKVRREQPGSELAVVAAIISAVARMGVKMELHPSGNEVKVVIKGLHIKQQRQLYRDVREAAKKAGVEVEIEVEGDTVTIVVRGGSHHWGSGSHHHHHH
notes: Bivalent connector
As for B6, the binding result with DF202, in the series with DFB0, with DFB-1 and with DF206 was “binds” in each case.

B7: LHD289 chainA (designed binder)
chain: GRQEKVLKSIEETVRKMGVTMLTHRHGNVVFVVILGLHKQQALQLLRDVHRTAHKQGVTLSITFSGDIVVIAVTVGASEEEKKEVRKIVKEIAKQLRHAETEEEAKEIVQRVIEEWQEEG
notes: also called LHD289A
For the molecule B7, in the series with 289B [11], the Kd stood at 1080 nM, the koff came out at 0.057 s⁻¹ and the kon came out at 53000 M⁻¹ s⁻¹. In the series with 289B [12], this molecule registered an equilibrium dissociation constant (Kd) of 610 nM.

(Values after US20240368233A1 (University of Washington, published 2024).)
